Experimental data reported in US7919584B1, “Methods and compositions for diagnosis and treatment of asthma” (Arbor Vita Corporation, priority 2005, dated 2011).
Ends that are not written are not given here. Peptide text beside a SMILES is read from it. * marks the point of attachment. Biotin = O=C1N[C@H]2[C@H](CS[C@H]2CCCCC(=O)*)N1

Tests used:
[1] = molecular target: T1, GORASP1 d1 (Homo sapiens, UniProt Q9BQQ3); assay: modified G assay titration, peptide vs constant GST-PDZ domain fusion; type: binding
T1 construct: made in house; host or cells: E. coli (DH5α, BL21 or JM109)
Procedure: (§1) A Nunc Maxisorp 96 well Immunoplate (Nunc cat#62409-002) was coated with 100 μl of 5 μg/ml goat anti-GST polyclonal antibody (Amersham Pharmacia cat#27-457-01) and incubated overnight at 4° C. The plate was blocked by addition of 200 μl Assay Buffer (2% bovine serum albumin in PBS, pH 7.4) for 1 to 2 hours at room temperature, then washed three times in Assay Buffer.
(§2) 50 μl per well of GST-PDZ fusion proteins (5 μg/ml in Assay Buffer), or, as a negative control, GST polypeptide alone, was added to the plate, and incubated for 1 to 2 hours at 4° C.
(§3) Biotinylated peptides were prepared in Assay Buffer, in half the volume required at 40 μM. HRP-Streptavidin (Zymed cat#43-4323) was diluted 1:1000 in another half volume of Assay Buffer, then mixed with the peptides. The peptide-HRP mixtures were incubated for 20 minutes at room temperature. […]
(§4) The plate was then washed five times with room temperature PBS, and developed by addition of 100 μl/well of HRP substrate solution (3,3′,5,5′, tetramethylbensidine (TMB) (Dako cat#S1600)) for a maximum of 30 minutes in the dark at room temperature. The reaction of HRP and its substrate was terminated by addition of 100 μl of 0.18 M H2SO4 (Sigma cat#S1526), and the absorbance of each well of the plate was read at 450 nm.

[2] = molecular target: T2, KIAA1284 (Homo sapiens, UniProt Q9ULD6); assay: as above; type: binding
T2 construct: made in house; host or cells: E. coli (DH5α, BL21 or JM109)
T2 sequence (Q9ULD6 with tags, fused parts or gaps): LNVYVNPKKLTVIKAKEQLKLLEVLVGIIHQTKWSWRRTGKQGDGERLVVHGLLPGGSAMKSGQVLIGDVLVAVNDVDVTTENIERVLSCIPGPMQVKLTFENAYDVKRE
Procedure: as §1, §2, §3, §4

[3] = molecular target: T3, GST-TIP2 PDZ domain fusion protein (human, UniProt O14908 118-223); assay: modified G assay, peptide titrated against a constant amount of immobilized GST-PDZ fusion; Hill fit
T3 construct: domain: PDZ domain; not shown: glutathione-S transferase (GST) encoded by the pGEX-3X vector (Pharmacia); short vector-encoded linker
T3 sequence (looked up): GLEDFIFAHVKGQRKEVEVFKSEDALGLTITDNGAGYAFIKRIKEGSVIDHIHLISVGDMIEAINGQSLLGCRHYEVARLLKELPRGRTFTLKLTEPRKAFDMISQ

[4] = molecular target: T4, GST-KIAA1284 PDZ domain fusion protein (human, UniProt P08515 1-218 = GST); assay: as above
T4 construct: also called PDZK6; not shown: short vector-encoded linker

[5] = molecular target: T5, GST-GORASP1 (PDZ #1) fusion protein (human, UniProt P08515 1-218 = GST); assay: as above
T5 construct: also called GORASP1 d1; GRASP1; not shown: short vector-encoded linker (Gly-Ile, Gly-Ile-Pro-Gly-Asn or Gly-Ile-Pro, by cloning site); which one in this construct

[6] = molecular target: T6, GST-PSD95 d2 (PDZ domain 2) fusion protein (human, UniProt P78352 147-253); assay: as above
T6 construct: domain: d2; not shown: glutathione-S transferase (GST) encoded by the pGEX-3X vector (Pharmacia); short vector-encoded linker
T6 sequence (P78352 147-253): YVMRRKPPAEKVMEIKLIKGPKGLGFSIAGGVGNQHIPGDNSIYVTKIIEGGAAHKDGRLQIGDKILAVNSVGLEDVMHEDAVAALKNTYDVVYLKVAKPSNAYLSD

T1 sequence (Q9BQQ3 1-110): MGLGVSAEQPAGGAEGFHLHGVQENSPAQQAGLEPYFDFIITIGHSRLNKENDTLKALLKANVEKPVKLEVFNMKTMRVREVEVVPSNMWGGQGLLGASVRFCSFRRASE
T4 sequence (P08515 1-218, tags or fused parts left off): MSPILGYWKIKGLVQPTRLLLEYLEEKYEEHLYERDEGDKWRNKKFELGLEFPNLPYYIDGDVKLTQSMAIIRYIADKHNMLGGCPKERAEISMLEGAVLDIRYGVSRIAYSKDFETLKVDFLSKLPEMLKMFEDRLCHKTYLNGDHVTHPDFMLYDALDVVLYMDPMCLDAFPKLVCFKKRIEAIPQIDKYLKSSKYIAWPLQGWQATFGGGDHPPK
T5 sequence (P08515 1-218, tags or fused parts left off): as above

Molecule | EC50 [1] [µM] | EC50 [2] [µM] | EC50 [3] [µM] | EC50 [4] [µM] | EC50 [5] [µM] | EC50 [6] [µM]
CC[C@H](C)[C@H](NC(=O)[C@H](CCCNC(=N)N)NC(=O)[C@H](CCCNC(=N)N)NC(=O)[C@H](CCCNC(=N)N)NC(=O)[C@H](CCC(N)=O)NC(=O)[C@H](CCCNC(=N)N)NC(=O)[C@H](CCCNC(=N)N)NC(=O)[C@H](CCCCN)NC(=O)[C@H](CCCCN)NC(=O)[C@H](CCCNC(=N)N)NC(=O)CNC(=O)[C@H](Cc1ccc(O)cc1)NC(=O)CCCC[C@@H]1SC[C@@H]2NC(=O)N[C@@H]21)C(=O)NCC(=O)N[C@@H](CCC(=O)O)C(=O)N[C@@H](CC(C)C)C(=O)N[C@@H](CCC(N)=O)C(=O)N[C@@H](CC(C)C)C(=O)N[C@@H](CO)C(=O)N[C@H](C(=O)N[C@@H](C)C(=O)O)[C@@H](C)CC [Tat-hCLCA1] (HELM PEPTIDE1{[O=C1N[C@H]2[C@H](CS[C@H]2CCCCC(=O)[*:2])N1].Y.G.R.K.K.R.R.Q.R.R.R.I.G.E.L.Q.L.S.I.A}$$$$V2.0) | 0.12 | 0.074 | – | – | – | –
Biotin-YGRKKRRQRRRIGELQLSIA (Synthetic peptide, HPLC purified; pre-mixed with HRP-streptavidin in the modified G assay; also called Tat-hCLCA1 (SIA)) | – | – | 1.1 | 0.074 | 0.12 | 3.1
